T1: recombinant Nitric oxide synthase interacting protein (NOSIP)
T1 chain: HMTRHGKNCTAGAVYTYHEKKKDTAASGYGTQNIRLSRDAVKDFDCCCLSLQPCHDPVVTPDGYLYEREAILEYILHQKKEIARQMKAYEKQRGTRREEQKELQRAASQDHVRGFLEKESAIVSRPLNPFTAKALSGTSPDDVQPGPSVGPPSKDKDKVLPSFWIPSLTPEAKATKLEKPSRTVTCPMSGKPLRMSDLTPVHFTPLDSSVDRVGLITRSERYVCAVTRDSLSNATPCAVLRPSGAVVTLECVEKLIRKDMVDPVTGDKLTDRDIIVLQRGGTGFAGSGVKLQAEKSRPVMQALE

B1: iNOS Peptide-2 (18 mer iNOS peptide) (peptide)
peptide: NQYYGSFKEAKIEEHLAR
notes: 18-residue iNOS-derived peptide, synthesized commercially by China peptides; also called PP2; PP-2
B2: recombinant Nitric oxide synthase interacting protein (NOSIP) (other)
chain: T1 chain
notes: It was synthesized by GenScript, cloned in pET22b, expressed in E. coli BL21 (DE3) and purified on Ni-NTA and by gel filtration; A His tag is implied but never described; also called rNOSIP; recombinant NOSIP
B3: recombinant human iNOS oxygenase domain (protein)
chain: HMPRHVRIKNWGSGMTFQDTLHHKAKGILTCRSKSCLGSIMTPKSLTRGPRDKPTPPDELLPQAIEFVNQYYGSFKEAKIEEHLARVEAVTKEIETTGTYQLTGDELIFATKQAWRNAPRCIGRIQWSNLQVFDARSCSTAREMFEHICRHVRYSTNNGNIRSAITVFPQRSDGKHDFRVWNAQLIRYAGYQMPDGSIRGDPANVEFTQLCIDLGWKPKYGRFDVVPLVLQANGRDPELFEIPPDLVLEVAMEHPKYEWFRELELKWYALPAVANMLLEVGGLEFPGCPFNGWYMGTEIGVRDFCDVQRYNILEEVGRRMGLETHKLASLWKDQAVVEINIAVLHSFQKQNVTIMDHHSAAESFMKYMQNEYRSRGGCPADWIWLVPPMSGSITPVFHQEMLNYVLSPFYYYQVEAWKTHVWQDEKLE

Data set [1] addresses B2. The experiment in a line: ITC; this row is the reference of the fold change in Table 1. As for the experimental part: (§1) The 18 mer iNOS peptide (PP2) and small molecules were used for physical association of molecules in calorimetric analysis. The molecular association leads to thermodynamics changes such as Gibb's free energy change (ΔG), entropy change (ΔS), enthalpy change (ΔH) and number of binding sites (N) in interacting solution were investigated by isothermal calorimetry MICROCAL PEQ (Malvern) at 25° C. The sample cell were filled with peptides, small molecules and the reference cell was filled with 25 mM HEPES and 150 mM Sodium chloride, pH=7 and the syringe was filled with NOSIP solution (200 μM). The experiment consisted of multiple injections and each injection contained 1.5 μl of binding solution (recombinant NOSIP solution) with 120 second spacing time between subsequent injections. Sequential titrations were carried out and the sample solution was continuously stirred at 270 rpm by the rotating paddle attached to the syringe needle. Multiple injections of NOSIP made into the sample cell containing interacting solution of peptide and small molecules. The titration curves were analyzed using the analysis software provided with the calorimeter.
The 18 mer iNOS peptide (PP2) and five small molecules were used to analyze physical association in calorimetric analysis. […] The titration curves were analyzed using the analysis software provided with the calorimeter.
Background: In ITC the heat of successive injections is recorded.

Data set [2] addresses B2. The experiment in a line: ITC (MicroCal PEAQ), peptide in cell, rNOSIP in syringe, 25 C. As for the experimental part:
as §1
The 18 mer iNOS peptide (PP2) and five small molecules were used to analyze physical association in calorimetric analysis. The molecular association leads to thermodynamics changes such as Gibb's free energy change (ΔG), entropy change (ΔS), enthalpy change (ΔH) and number of binding sites (N) in interacting solution were investigated by isothermal calorimetry MICROCAL PEQ (Malvern) at 25° C. The sample cell were filled with peptides, small molecules and the reference cell was filled with 25 mM HEPES and 150 mM Sodium chloride, pH=7 and the syringe was filled with NOSIP solution (200 μM). The experiment consisted of multiple injections and each injection contained 1.5 μl of binding solution with 120 second spacing time between subsequent injections. Sequential titrations were carried out and the sample solution was continuously stirred at 270 rpm by the rotating paddle attached to the syringe needle. Multiple injections of NOSIP made into the sample cell containing interacting solution of peptide and small molecules. The titration curves were analyzed using the analysis software provided with the calorimeter.

The target in data set [3] is B2. The experiment in a line: ITC, 10 µM iNOS peptide in the chamber, 150 µM rNOSIP in syringe, 25 C. As for the experimental part: (§2) The predictions were tested for validation by […] (SPR). […] The other 3 peptides (Peptide-1, SEQ ID No: 25), (Peptide3, SEQ ID No: 27), and (peptide-4, SEQ ID No: 28) were less efficient in inhibiting interaction between iNOS and NOSIP as shown in FIG. 2(a). […] NOSIP and iNOS peptide (PP2) binding was measured by titrating 10 μM iNOS peptide in the chamber with 150 μM rNOSIP in syringe at 25° C. Top panel, raw heating power over time; Bottom panel, fit of integrated injection enthalpy over the mole ratio of the reactants.

Data set [4] concerns the target B2. The experiment in a line: ITC, 10 µM iNOS peptide in the chamber, 150 µM rNOSIP in syringe, 25 C; ITC, 25 C; 10 µM iNOS peptide in chamber, 150 µM rNOSIP in syringe. Here is the method:
as §2

For data set [5], the target named is T2, recombinant human iNOS oxygenase domain (human, UniProt P35228 82-505).
T2 construct: It was cloned in pET22b, expressed in E. coli BL21 (DE3) and purified on Ni-NTA and by gel filtration; A His tag is implied but never described; In SPR it was immobilised on a GLC chip by amine coupling; also called riNOS; r iNOS
The experiment in a line: SPR, iNOS immobilised; KD ratio against the row rNOSIP + iNOS peptide2 (= 1). As for the experimental part: (§3) Four different iNOS peptides were synthesized commercially by China peptides and iNOS peptides were used for molecular interaction studies with immobilized recombinant iNOS purified protein. The iNOS peptides mediated inhibition of rNOSIP and riNOS protein association in Bio-Rad XPR 36 surface plasmon resonance biosensor instrument. […] 250 nM of iNOS peptides was used for inhibition assay with immobilized ligand(recombinant iNOS) in SPR analysis. Similar condition and concentration of small molecules were used for inhibition of recombinant protein association with immobilized ligand. […] The molecular interaction was carried out at 20° C. and kinetic parameters were determined, after fitting the association and dissociation curves to a 1:1 (Langmuir)-binding model. […] The response curves were also recorded on control surfaces. Results were calculated after subtraction of the control values using the ProteOn Manager software.
(§4) The five small molecules bind with NOSIP and inhibit the association of recombinant NOSIP and recombinant iNOS. […] The molecular interaction was carried out at 20° C. and kinetic parameters were determined, after fitting the association and dissociation curves to a 1:1 (Langmuir)-binding model. […] The response curves were also recorded on control surfaces. Results were calculated after subtraction of the control values using the ProteOn Manager software. […]
In general terms: Surface plasmon resonance follows binding to a sensor surface in real time, without labels.

Data set [6] has as its target T2, recombinant human iNOS oxygenase domain. The experiment in a line: SPR, iNOS immobilised, rNOSIP with iNOS peptide 2; this row is the reference of the fold change.
For data set [7] the target is unchanged. The experiment in a line: SPR, iNOS immobilised, rNOSIP with small molecule CC4; KD ratio against the row rNOSIP + iNOS peptide2. As for the experimental part: as §3, §4
Data set [8] shares this target. The experiment in a line: SPR, iNOS immobilised, rNOSIP with small molecule CC5; KD ratio against the row rNOSIP + iNOS peptide2. As for the experimental part:
as §3, §4

The target is the same in data set [9]. The experiment in a line: SPR, iNOS immobilised, rNOSIP with small molecule CC6; KD ratio against the row rNOSIP + iNOS peptide2. As for the experimental part:
as §3, §4

Data set [10] shares this target. The experiment in a line: SPR, iNOS immobilised, rNOSIP with small molecule CC11; KD ratio against the row rNOSIP + iNOS peptide2. As for the experimental part:
as §3, §4

The target is the same in data set [11]. The experiment in a line: SPR, iNOS immobilised, rNOSIP with small molecule CC13; KD ratio against the row rNOSIP + iNOS peptide2. Here is the method: as §3, §4
Data set [12] shares this target. The experiment in a line: SPR, iNOS immobilised, rNOSIP pre-incubated 30 min on ice with iNOS peptide 2 (competitor), 20 C, 1:1 Langmuir fit. As for the experimental part:
as §3
(§5) The five small molecules bind with NOSIP and inhibit the association of recombinant NOSIP and recombinant iNOS. […] The molecular interaction was carried out at 20° C. and kinetic parameters were determined, after fitting the association and dissociation curves to a 1:1 (Langmuir)-binding model. […] The response curves were also recorded on control surfaces. Results were calculated after subtraction of the control values using the ProteOn Manager software.

Data set [13] shares this target. The experiment in a line: SPR (Bio-Rad ProteOn XPR36), iNOS immobilised on GLC chip by amine coupling, NOSIP as analyte, 20 C, 1:1 Langmuir fit. Here is the method:
(§6) Four different iNOS peptides were synthesized commercially by China peptides and iNOS peptides were used for molecular interaction studies with immobilized recombinant iNOS purified protein. The iNOS peptides mediated inhibition of rNOSIP and riNOS protein association in Bio-Rad XPR 36 surface plasmon resonance biosensor instrument. […] 250 nM of iNOS peptides was used for inhibition assay with immobilized ligand(recombinant iNOS) in SPR analysis. Similar condition and concentration of small molecules were used for inhibition of recombinant protein association with immobilized ligand. […] The rNOSIP protein was incubated with iNOS derived peptide/small molecules for 30 minutes in ice for inhibition assay before the SPR application in our study. The molecular interaction was carried out at 20° C. and kinetic parameters were determined, after fitting the association and dissociation curves to a 1:1 (Langmuir)-binding model. An activated channel without immobilized ligand was used to evaluate nonspecific binding. The response curves were also recorded on control surfaces. Results were calculated after subtraction of the control values using the ProteOn Manager software.
Manager software was used to fit the data with the Langmuir model describing a 1:1 binding stoichiometry. Ka is the association rate constant, Kd is the dissociation rate constant, and KD is the equilibrium dissociation constant, defined by the Kd/Ka ratio for the analytes—ligand binding.

Data set [14] has the same target. The experiment in a line: SPR, iNOS immobilised, rNOSIP pre-incubated 30 min on ice with small molecule CC4 (inhibitor), 20 C, 1:1 Langmuir fit. Here is the method: as §3, §5
For data set [15] the target is unchanged. The experiment in a line: SPR, iNOS immobilised, rNOSIP pre-incubated 30 min on ice with small molecule CC5 (inhibitor), 20 C, 1:1 Langmuir fit. As for the experimental part: as §3, §4
Data set [16] shares this target. The experiment in a line: SPR, iNOS immobilised, rNOSIP pre-incubated 30 min on ice with small molecule CC6 (inhibitor), 20 C, 1:1 Langmuir fit. As for the experimental part:
as §3, §4

The target is the same in data set [17]. The experiment in a line: SPR, iNOS immobilised, rNOSIP pre-incubated 30 min on ice with small molecule CC11 (inhibitor), 20 C, 1:1 Langmuir fit. Here is the method: as §3, §4
Data set [18] shares this target. The experiment in a line: SPR, iNOS immobilised, rNOSIP pre-incubated 30 min on ice with small molecule CC13 (inhibitor), 20 C, 1:1 Langmuir fit. As for the experimental part: as §3, §4
Data set [19] has the same target. The experiment in a line: SPR, NOSIP 1000 nM to 62.5 nM over immobilised iNOS in presence of 250 nM iNOS PP2 (competitor), Kinetic-Langmuir analysis (FIG. 2(b)). As for the experimental part: FIG. 2 depicts inhibition of iNOS-NOSIP protein interaction by iNOS derived peptides. […] These interactions was inhibited in presence of different iNOS peptides (250 nM) viz; PP1—red line, PP2—sky blue line at bottom of graph, PP3—blue line and PP4—green line.
as §6

The target in data set [20] is T1, recombinant Nitric oxide synthase ….

For orientation: Kd means the concentration at which binding is half-saturated. Turning to B1, the “Fold Change (KD)” value in data set [1] came out at 1. In data set [2], the “-TΔS” value is -0.1 kcal/mol, the Kd came to 0.548 µM, the ΔG is -8.54 kcal/mol and the ΔH was -8.44 kcal/mol. Besides, in data set [3], the “-TΔS” value was found to be 0.459 kcal/mol, the N amounted to 0.993, the ΔG is -8.61 kcal/mol and the ΔH was -9.07 kcal/mol. Moreover, the Kd in data set [4] came to 0.493 µM.

One may read the koff as the rate constant with which the complex falls apart. A word on the kon: it is the rate constant with which the complex forms. In the case of B2, the “Fold Change (KD)” value was found to be 0.00144 in data set [5]; 1 in data set [6]; 176 in data set [7]; 119 in data set [8]; 142 in data set [9]; 164 in data set [10]. Besides, in [11], the “Fold Change (KD)” value was found to be 110. In addition, the “KD (M) in presence of iNOS peptide2” value in data set [12] was 4.94e-06 M. In data set [13], the Kd is 0.00711 µM. In data set [13], the off-rate (koff) was found to be 0.000681 s⁻¹. Also, in data set [13], the kon stood at 95700 M⁻¹ s⁻¹. Moreover, in [14], the “KD (M) in presence of small molecule MCULE-4640800528 (CC4)” value stood at 0.00087 M. Besides, in [15], the “KD (M) in presence of small molecule MCULE-8469877005 (CC5)” value came out at 0.000588 M. Further, the “KD (M) in presence of small molecule MCULE-3765839647 (CC6)” value in [16] amounted to 0.000704 M. Besides, the “KD (M) in presence of small molecule MCULE-8094061955 (CC11)” value in [17] was determined as 0.000809 M. Also, the “KD (M) in presence of small molecule MCULE-8395438746 (CC13)” value in [18] is 0.000543 M. Moreover, the “KD in presence of 250 nM iNOS PP2” value in [19] turned out to be 0.495 µM. The “Ka in presence of 250 nM iNOS PP2” value in data set [19] was found to be 5360. Further, in data set [19], the “Kd in presence of 250 nM iNOS PP2” value is 0.00265.

Take B3: the “iNOS enzyme activity (nitrite quantified by Griess reaction, L-Arginine substrate)” value in [20] is given as “recombinant NOSIP inhibits enzyme activity of iNOS”.

The record behind these values is patent US20240000786A1, “COMPOSITION FOR ENHANCING INTRA-CELLULAR NITRIC OXIDE GENERATION” (INSTITUTE OF LIFE SCIENCES, priority 2020, published 2024).
